Patent publication US20180030151A1
Where two headings read alike, the source gives them in different places.

Assays:
[1] = biological target: recombinant human TFPI (tissue factor pathway inhibitor) (human) (UniProt P10646)
[2] = biological target: recombinant human TFPI (tissue factor pathway inhibitor) (human) (UniProt P10646); remark: listed apart in the source
[3] = biological target: recombinant human TFPI (tissue factor pathway inhibitor) (human) (UniProt P10646); remark: listed apart in the source
[4] = biological target: recombinant human TFPI (tissue factor pathway inhibitor) (human) (UniProt P10646); remark: listed apart in the source
[5] = biological target: recombinant human TFPI (tissue factor pathway inhibitor) (human) (UniProt P10646); remark: listed apart in the source
[6] = biological target: recombinant human TFPI (tissue factor pathway inhibitor) (human) (UniProt P10646); remark: listed apart in the source
[7] = biological target: recombinant human TFPI (tissue factor pathway inhibitor) (human) (UniProt P10646); remark: listed apart in the source
[8] = biological target: recombinant human TFPI (tissue factor pathway inhibitor) (human) (UniProt P10646); remark: listed apart in the source
[9] = biological target: recombinant human TFPI (tissue factor pathway inhibitor) (human) (UniProt P10646); remark: listed apart in the source

FXa assay % of FXa alone, 2.5 nM Ab, 10 nM TFPI [1]: 9% | FXa assay % of FXa alone, 5 nM Ab, 10 nM TFPI [1]: 61.3% | FXa assay % of FXa alone, 10 nM Ab, 10 nM TFPI [1]: 97.4% | FXa assay % of FXa alone, 20 nM Ab, 10 nM TFPI [1]: 93.6% | FXa assay OD, 2.5 nM Ab, 10 nM TFPI [1]: 0.065 | FXa assay OD, 5 nM Ab, 10 nM TFPI [1]: 0.441 | FXa assay OD, 10 nM Ab, 10 nM TFPI [1]: 0.701 | FXa assay OD, 20 nM Ab, 10 nM TFPI [1]: 0.673 | FXa assay % of FXa alone, 2.5 nM Ab, 10 nM TFPI [2]: 12.3% | FXa assay % of FXa alone, 5 nM Ab, 10 nM TFPI [2]: 90% | FXa assay % of FXa alone, 10 nM Ab, 10 nM TFPI [2]: 96.5% | FXa assay % of FXa alone, 20 nM Ab, 10 nM TFPI [2]: 88.8% | FXa assay OD, 2.5 nM Ab, 10 nM TFPI [2]: 0.0945 | FXa assay OD, 5 nM Ab, 10 nM TFPI [2]: 0.693 | FXa assay OD, 10 nM Ab, 10 nM TFPI [2]: 0.743 | FXa assay OD, 20 nM Ab, 10 nM TFPI [2]: 0.683 | FXa assay % of FXa alone, 2.5 nM Ab, 10 nM TFPI [3]: 6.6% | FXa assay % of FXa alone, 5 nM Ab, 10 nM TFPI [3]: 35% | FXa assay % of FXa alone, 10 nM Ab, 10 nM TFPI [3]: 98.5% | FXa assay % of FXa alone, 20 nM Ab, 10 nM TFPI [3]: 85.8% | FXa assay OD, 2.5 nM Ab, 10 nM TFPI [3]: 0.032 | FXa assay OD, 5 nM Ab, 10 nM TFPI [3]: 0.17 | FXa assay OD, 10 nM Ab, 10 nM TFPI [3]: 0.476 | FXa assay OD, 20 nM Ab, 10 nM TFPI [3]: 0.415 | FXa assay % of FXa alone, 2.5 nM Ab, 10 nM TFPI [4]: 9.2% | FXa assay % of FXa alone, 5 nM Ab, 10 nM TFPI [4]: 87% | FXa assay % of FXa alone, 10 nM Ab, 10 nM TFPI [4]: 95.7% | FXa assay % of FXa alone, 20 nM Ab, 10 nM TFPI [4]: 98.3% | FXa assay OD, 2.5 nM Ab, 10 nM TFPI [4]: 0.0745 | FXa assay OD, 5 nM Ab, 10 nM TFPI [4]: 0.702 | FXa assay OD, 10 nM Ab, 10 nM TFPI [4]: 0.772 | FXa assay OD, 20 nM Ab, 10 nM TFPI [4]: 0.793 | FXa assay % of FXa alone, 2.5 nM Ab, 10 nM TFPI [5]: 8.7% | FXa assay % of FXa alone, 5 nM Ab, 10 nM TFPI [5]: 33.6% | FXa assay % of FXa alone, 10 nM Ab, 10 nM TFPI [5]: 92.4% | FXa assay % of FXa alone, 20 nM Ab, 10 nM TFPI [5]: 91.4% | FXa assay OD, 2.5 nM Ab, 10 nM TFPI [5]: 0.071 | FXa assay OD, 5 nM Ab, 10 nM TFPI [5]: 0.273 | FXa assay OD, 10 nM Ab, 10 nM TFPI [5]: 0.75 | FXa assay OD, 20 nM Ab, 10 nM TFPI [5]: 0.742 | FXa assay % of FXa alone, 2.5 nM Ab, 10 nM TFPI [6]: 6.2% | FXa assay % of FXa alone, 5 nM Ab, 10 nM TFPI [6]: 16.4% | FXa assay % of FXa alone, 10 nM Ab, 10 nM TFPI [6]: 87.5% | FXa assay % of FXa alone, 20 nM Ab, 10 nM TFPI [6]: 84.6% | FXa assay OD, 2.5 nM Ab, 10 nM TFPI [6]: 0.0475 | FXa assay OD, 5 nM Ab, 10 nM TFPI [6]: 0.125 | FXa assay OD, 20 nM Ab, 10 nM TFPI [6]: 0.644 | FXa assay % of FXa alone, 2.5 nM Ab, 10 nM TFPI [7]: 5.6% | FXa assay % of FXa alone, 5 nM Ab, 10 nM TFPI [7]: 10.7% | FXa assay % of FXa alone, 10 nM Ab, 10 nM TFPI [7]: 77.7% | FXa assay % of FXa alone, 20 nM Ab, 10 nM TFPI [7]: 84.5% | FXa assay OD, 2.5 nM Ab, 10 nM TFPI [7]: 0.0485 | FXa assay OD, 5 nM Ab, 10 nM TFPI [7]: 0.0935 | FXa assay OD, 10 nM Ab, 10 nM TFPI [7]: 0.676 | FXa assay OD, 20 nM Ab, 10 nM TFPI [7]: 0.735 | FXa assay % of FXa alone, 2.5 nM Ab, 10 nM TFPI [8]: 8.4% | FXa assay % of FXa alone, 5 nM Ab, 10 nM TFPI [8]: 21% | FXa assay % of FXa alone, 10 nM Ab, 10 nM TFPI [8]: 90.7% | FXa assay % of FXa alone, 20 nM Ab, 10 nM TFPI [8]: 95.2% | FXa assay OD, 2.5 nM Ab, 10 nM TFPI [8]: 0.101 | FXa assay OD, 5 nM Ab, 10 nM TFPI [8]: 0.249 | FXa assay OD, 10 nM Ab, 10 nM TFPI [8]: 1.08 | FXa assay OD, 20 nM Ab, 10 nM TFPI [8]: 1.13 | FXa assay % of FXa alone, 2.5 nM Ab, 10 nM TFPI [9]: 8.5% | FXa assay % of FXa alone, 5 nM Ab, 10 nM TFPI [9]: 66.6% | FXa assay % of FXa alone, 10 nM Ab, 10 nM TFPI [9]: 92.3% | FXa assay % of FXa alone, 20 nM Ab, 10 nM TFPI [9]: 87.6% | FXa assay OD, 2.5 nM Ab, 10 nM TFPI [9]: 0.07 | FXa assay OD, 5 nM Ab, 10 nM TFPI [9]: 0.55 | FXa assay OD, 10 nM Ab, 10 nM TFPI [9]: 0.763
B1: mAb2021 (anti-TFPI Ab, Novo Nordisk) (antibody, from another filing, V domains shown)
VH: EVQLVESGGGLVKPGGSLRLSCAASGFTFSNYAMSWVRQTPEKRLEWVATISRSGSYSYFPDSVQGRFTISRDNAKNSLYLQMNSLRAEDTAVYYCARLGGYDEGDAMDSWGQGTTVTVSS
VL: DIVMTQTPLSLSVTPGQPASISCKSSQSLLESDGKTYLNWYLQKPGQSPQLLIYLVSILDSGVPDRFSGSGSGTDFTLKISRVEAEDVGVYYCLQATHFPQTFGGGTKVEIKR
